B1: B. malayi NMT (BmNMT, myristoyl-CoA:protein N-myristoyltransferase) (Brugia malayi) (protein)
chain: MKEPPAGNIKLDDEDEKMMAAGNSKMDQNNDKENDAGDESIQNVTGRNSPTAVIDLKELTESTLMKKFEMLTVGGTSAAKHITEAQRHKYLFWDTQPVPKINEMVTENRAIEPPLDISEVREEPFSLPDPFCWCDIEINSVKELTELYTLLTENYVEDDDNMFRFDYSPEFLLWALKAPGWMKNWHCGVRAKSNGKLIAFISAIPSVIRVYDKQIKMVEINFLCVHKKLRSKRVAPVLIREITRRVNREGIFQAVFTAGVVLPKPIATCRYWHRSLNPKKLIEVKFSHLSRKMTMQRTLKLYKLPDHPRTANLVPMKKCHIDGAYGLLQCYLKKFDLSPQFTRADFEHFFMPREDVIYSYVALNEEDSKVSDLISFYSLPSSVMHHPQYKSIRAAYSFYNVATSVTLKQLINDALILARNCGFDVFNALDLMDNKEILEDLKFGIGDGNLQYYLYNWKCPDIIPEKIGLVLQ
B2: C. elegans NMT (CeNMT, myristoyl-CoA:protein N-myristoyltransferase) (Caenorhabditis elegans) (protein)
chain: MSHGHSHDGAPCGGHHGDDGAGGSRPSVNDVQALVDQLRLAGVDVSNMPNIPTAPRDMDEARSKSFQFWSTQPVPQMDETVPADVNCAIEENIALDKVRAEPFSLPAGFRWSNVDLSDEEQLNELYNLLTRNYVEDDDSMFRFDYSADFLKWALQVPGFRPEWHCGVRADSNNRLLAFIGAVPQTVRVYDKTVNMVEINFLCVHKNLRSRRVAPVLIREITRRVNVTGIFQAAFTAGIVIPKPVSVCRYYHRSLNPRKLIDVRFSHLSAKMTMARTIKLYKLPEETATRNLREMKSTDVPQVFKLLTTSLKQYSLAPVYNSEEELAHALVPKKGVVYSYVAENQNGKITDFVSFYSLPSTVMGHTTHKTIYAAYLYYYVAGSVTPKQLINDSLILANREKFDVFNALDLMHNEKIFSDLKFGKGDGNLQYYLYNWKCADMKPSQIGLVLQ

Substrate: CCCCCCCCCCCCCC(=O)SCCNC(=O)CCNC(=O)[C@H](O)C(C)(C)COP(=O)(O)OP(=O)(O)OC[C@H]1O[C@@H](n2cnc3c(N)ncnc32)[C@H](O)[C@@H]1OP(=O)(O)O
Assay: purified protein

| Protein | Km |
| --- | --- |
| B1 | 4.4 µM |
| B2 | 12.2 µM |

From PMC4154664
